Measured values: the supplement of paper PMC9170038

Test system: MS2 coat protein
Assay: apparent KD of MS2 coat protein; designed switch direction (-1 OFF switch, 1 ON switch): 1; higher = weaker reporter binding
Outline: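 SNAP-549-labelled MS2 coat protein was titrated, doubling from 0.7 or 1.5 nM to 3 µM, over designed RNA switches transcribed on Illumina chips by stalled E. coli RNA polymerase. Runs were done without input, with 200 uM small-molecule ligand, or with an oligonucleotide input. Apparent KD is the per-design median over clusters of curve-fitted normalised fluorescence.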

[1] = input ligand: microRNA oligo, concentration not stated
[2] = Eterna round: R95, input ligand: microRNA oligo, concentration not stated
[3] = Eterna round: R95, input ligand: FMN 200 uM
[4] = Eterna round: R95, input ligand: none

Sequence | apparent KD of MS2 coat protein (input ligand: FMN 200 uM) | apparent KD of MS2 coat protein [1] | apparent KD of MS2 coat protein (input ligand: none) | apparent KD of MS2 coat protein [2] | apparent KD of MS2 coat protein [3] | apparent KD of MS2 coat protein [4]
GGAGCCGAUACUGAGGAUAUUCAUAUUAAAACAUGAGGAUCACCCAUGUAGGCCAGAAGGCCUUGGGAGAAGGCAGAUCGGCUCC [Biseusra - 4] (Eterna round: R96, puzzle: Same State 2) | 21 nM | 207 nM | 358 nM | – | – | –
ACUAAAACUGCAGGAUAUGUCCGGAACUCCGUUACAGAAGGGCAACGCACUGUUGAGGGCACGACAUGAGGAUCACCCAUGUAG [Eternabot solution 46] (Eterna round: R96, puzzle: Same State NG 1) | 20.9 nM | 22.5 nM | 26.8 nM | – | – | –
CGGCGCUGUUGAGAGGAUAUGCGGUGAUGGACAUGAGGAUCACCCAUGUUAGCGAUAGCAUUACGGUAGAAGGCUCUACAGCUGU [Soteed Omei mod 11] (puzzle: Same State 2) | – | – | – | 21.7 nM | – | –
AGGCUCAGACGAGGAUAUAUGUGAUCACAUGAGGAUCACCCAUGUCUCGAGCUUCGGCUCGAGACAUAGAAGGCGUCUGAGCCA [SSNG2/3-A1] (Eterna round: R96, puzzle: Same State NG 2) | 505 nM | 8.91 nM | 21.4 nM | – | – | –
AGGACGAGCACAGGAUAUCCACGGAAAAGACGCGGAGAAGGGUGAAGUCAUGGAAAGAAAAGACAUGAGGAUCACCCAUGUAAA [Dibema] (Eterna round: R96, puzzle: Same State NG 1) | 26.2 nM | 20.5 nM | 28.4 nM | – | – | –
GCACUCCAAGGAGCUGCGACAUGAGGAUCACCCAUGUAAUCACAGGAUAUGCGAUUCCGAAUUUUGCAGAAGGGUGAUAAGAAC [Ratele] (Eterna round: R96, puzzle: Same State NG 3) | 139 nM | 18 nM | 106 nM | – | – | –
GCUACCAAUGAAGCCAACAUGAGGAUCACCCAUGUAUGUUGGCAGGAUAUCGAUUGCAAAGCGAUCGAGAAGGGCUAAGGUAGC [Mat - Same State NG 3 - JL Mod - D87] (Eterna round: R96, puzzle: Same State NG 3) | 107 nM | 120 nM | 177 nM | – | – | –
GCGAGCGUACUUGCUACAUGAGGAUCACCCAUGUUCGUUGGACAGGAUAUGGUACCGUUUCGGUACCAGAAGGGUUCAUCAUGU [JL SSNG3 3.75] (Eterna round: R96, puzzle: Same State NG 3) | 356 nM | 188 nM | 278 nM | – | – | –
UGGCUCAGACUAGGAUAUAUGUGGUCACAUGAGGAUCACCCAUGUCUCGAGCUUCGGCUCGAGGCAUAGAAGGAGUCUGAGCCU [SSNG2/5-D3] (Eterna round: R96, puzzle: Same State NG 2) | 249 nM | 15.3 nM | 59.9 nM | – | – | –
UUUAGGAGUCAAGGAUAUGCUACCGUUUCGGUAGCAGAAGGUGAUCACAUGAGGAUCACCCAUGUAUGCAUGCGUGAGCGUGCU [JL SSNG1 3.62] (Eterna round: R96, puzzle: Same State NG 1) | – | 24.1 nM | – | – | – | –
AUAAAACAUGAGGAUCACCCAUGUCAACUAAGUCGAGGAUAUGGGCAAAUAAAAUAAGAACCAGAAGGCGAAUAAU [salish99_ss1_r3_041] (puzzle: Same State 1) | – | – | – | 322 nM | 34.3 nM | 361 nM
AUUAUUUAUGCAGGAUAUGAUUAACAUGAGGAUCACCCAUGUGGUGUUGUGAGUAAGGAGAGUGAUCAGAAGGGCAUUUUUUUA [JMF's solution 56] (Eterna round: R96, puzzle: Same State NG 2) | 476 nM | 410 nM | 302 nM | – | – | –
ACAAGCUUUUCUGCAUUGAAAGGUUGAUAACAUGAGGAUCACCCAUGUUUAUAUGAAAAUAAUGCUCCUCGUCUUAU [JR_SHM208A_Sub094] (puzzle: Sensor for hsa-mir-208a) | – | – | – | 11.4 nM | 55.4 nM | 46.9 nM
GUAAGGCAAGCUUUUUUCUCGUAGUGUAAACAUGAGGAUCACCCAUGUGCUCGCCCUGGAUCUUUGAAUCGCAGAAA [Ritiorreon] (puzzle: Sensor for hsa-mir-208a) | – | – | – | 23.1 nM | 44.9 nM | 49.5 nM
AGCAUACAUGAGGAUCACCCAUGUCAACUUAGUCGAGGAUAUGGGCAGCCCUGAGGCGAACCAGAAGGCGAAUUGA [Mat - Same State 1 - Mod of JL - D1] (puzzle: Same State 1) | – | – | – | 51.5 nM | 28.3 nM | 66.1 nM
UGUUGGUUUUUGCUCGUUUUUUGUGUUGAACAUGAGGAUCACCCAUGUAUUGUACAGUCCAGUUUGGUAAUGGUGCG [JR_SHM208A_Sub046] (puzzle: Sensor for hsa-mir-208a) | – | – | – | 31.4 nM | 41.6 nM | 57.5 nM
UUUAUUAAUGCAGGAUAUGAUUAACAUGAGGAUCACCCAUGUGGUGUUGUGAGUAAGGAGAGUGAUCAGAAGGGCAUUUUUUUU [JMF's solution 39] (Eterna round: R96, puzzle: Same State NG 2) | 524 nM | 430 nM | 402 nM | – | – | –
AGAUCAUGACGAGGAUAUGGUACAUGAGGAUCACCCAUGUAUGUACCACGACGCGUACGUCGAAUCCAGAAGGCGUCAUGGUCA [Mat - Same State NG 2 - JL mod - D17] (Eterna round: R96, puzzle: Same State NG 2) | 17.8 nM | 51.3 nM | 119 nM | – | – | –
UGCUAGUGGGUAGGAUAUUUAGGAUAUGGGAAAGACUAAGUCUGUAGGUCACCUAACCCAGAAGGAGAGAAGGACCCUUCAGCU [pwkr ssNG2 2FMN + F9.28] (Eterna round: R96, puzzle: Same State NG 2) | 1660 nM | 13.9 nM | 38.9 nM | – | – | –
CAAGAAAACGCAGGAUAUACCCGGGCUACCCGGGUAGAAGGGUGACACAUGAGGAUCACCCAUGUACAUAGAAUUAGCUAUGGA [Soberaa] (Eterna round: R96, puzzle: Same State NG 1) | 284 nM | 15.9 nM | 26.7 nM | – | – | –
AGCUAUUACGAAGGAUAUUCUGACAUGAGGAUCACCCAUGUCUUCAUGAUUUAUUGUGAUCACGUGAAGAAGGUUGUACUAACA [SameState NG2 #26] (Eterna round: R96, puzzle: Same State NG 2) | 66.4 nM | 72.2 nM | 72.2 nM | – | – | –
GACCGCGAGGAAGGAUAUGGAGCCUUAUUGGCUCCAGAAGGUCCAUAAAGGACAUGAGGAUCACCCAUGUGGUGUGAAGCGGUC [Fiskers NG1ss - 18] (Eterna round: R96, puzzle: Same State NG 1) | 65.5 nM | 407 nM | 627 nM | – | – | –
GAGGGCGAAAGCAACAUGAGGAUCACCCAUGUUGUCGGAGGGCAGGAUAUCCGGCGAAAGCAGAAGGAGAAGGGUCGAAAAGAA [AK SSNG3-V2-39] (Eterna round: R96, puzzle: Same State NG 3) | 15.5 nM | 13.1 nM | 21.4 nM | – | – | –
AAUAUACAUGAGGAUCACCCAUGUUAGUAAAUGACAGGAUAUGGAAUAAAUAAAUAAUAACCAGAAGGGUCUAAUA [JMF's solution 2] (puzzle: Same State 1) | – | – | – | 24.9 nM | 16 nM | 28.5 nM
GUACAGAUUAUAGGAUAUCACGUCGAUUAGACGUGAGAAGGAUAAUCCCACAUGAAUAUUAAUACAUGAGGAUCACCCAUGUAC [SSNG1/18-B2] (Eterna round: R96, puzzle: Same State NG 1) | 24.2 nM | 22 nM | 30.5 nM | – | – | –
UGAAUAGUCACAGGAUAUCAUGCGAAAAUUGCGUGAGAAGGGUGGAUGUUGUGCUCAAAGUGCUACAUGAGGAUCACCCAUGUU [SameState NG1 #42] (Eterna round: R96, puzzle: Same State NG 1) | 337 nM | 234 nM | 187 nM | – | – | –
GAGUGGAGGAGAGGAUAUACAAUGAUAAUCACAGUAGAAGGUUCUAACAUGAGGAUCACCCAUGUAGGACUAUACCUGAGAGAA [Parity 48 - Jieux - Same State NG 1] (Eterna round: R96, puzzle: Same State NG 1) | 12.7 nM | 9.96 nM | 16 nM | – | – | –
